Experimental data as given in patent publication US20240270857A1 (CHIA TAI TIANQING PHARMACEUTICAL GROUP, published 2024).
Positions count from the first letter of the chain named.

Key:
[1] = target: T1, Human IL-1Rrp2/IL-1R6 protein, His Tag (ACROBiosystems, IL2-H52H6) (human, UniProt Q9HB29 20-335); test: ELISA, plate coated with human IL-1Rrp2/IL-1R6 His Tag, HRP-protein A/G, OD450
T1 construct: Bought protein; the soluble protein is likely only the extracellular part; also called hIL-36R; human IL36R antigen; not shown: His tag
T1 sequence: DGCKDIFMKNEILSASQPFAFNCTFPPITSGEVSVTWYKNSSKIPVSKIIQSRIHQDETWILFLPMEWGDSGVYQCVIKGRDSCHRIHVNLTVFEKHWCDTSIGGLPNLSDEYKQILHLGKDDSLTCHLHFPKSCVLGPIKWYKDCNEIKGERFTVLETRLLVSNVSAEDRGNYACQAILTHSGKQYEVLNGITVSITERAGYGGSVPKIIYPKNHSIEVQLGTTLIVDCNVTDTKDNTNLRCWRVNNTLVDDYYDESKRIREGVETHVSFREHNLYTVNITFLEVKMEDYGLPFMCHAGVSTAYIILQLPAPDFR
Experimental: The binding activity of anti-IL-36R antibodies to IL-36R was analyzed by ELISA using human IL-1Rrp2/IL-1R6 protein, His Tag (ACROBiosystems, IL2-H52H6) and CynoIL36R-ECD mFc (for detection of chimeric and humanized antibodies), and hIL36R-ECD hFc and CynoIL36R-ECD hFc protein (for detection of hybridoma antibodies) as antigens. A 96-well plate (Costar, 9018) was coated with 2 μg/mL antigen at 100 μL/well and incubated overnight at 4° C. After the 96-well plate was washed with a washing buffer (PBS containing 0.05% v/v Tween 20), a blocking buffer (PBS containing 2% bovine serum albumin) was added for blocking at 37° C. for 2 h. After the 96-well plate was washed with the washing buffer, 100 μL of the gradient diluted anti-IL-36R antibody of the present disclosure or the reference antibody BI655130 (the initial concentration of the antibody was 66 nM, 4-fold gradient dilution) was added to each well, and the plate was incubated at room temperature for 1 h. After the 96-well plate was washed with the washing buffer, 100 μL of horseradish peroxidase-conjugated recombinant protein A/G (TheroScientific, 32490) was added to each well, and the plate was incubated at room temperature for 1 h. After the 96-well plate was washed with the washing buffer, 100 μL of a TMB solution (Thermo, 00-4201-56) was added to each well, and the plate was incubated at room temperature for 2 min. Finally, 100 μL of a stop solution (2 N H₂SO₄) was added to each well to stop the reaction. Absorbance was read at 450 nm using a microplate reader (PE, Envision), the resulting data was analyzed using GraphPad Prism, and EC₅₀ was calculated. Binding EC₅₀ of the chimeric anti-IL-36R antibodies to hIL-36R in an ELISA assay is shown in FIG. 1. and binding EC₅₀ of the chimeric anti-IL-36R antibodies to CynoIL-36R in an ELISA assay is shown in FIG. 2. The binding of BI655130 is shown as a control, and the binding of IgG4 is shown as a negative control.

[2] = target: T2, IL-36R naturally expressed on OVCAR8 cells and on normal human epidermal keratinocytes (NHK cells) (human, UniProt Q9HB29 20-575); test: cell-based or functional assay
T2 sequence (looked up): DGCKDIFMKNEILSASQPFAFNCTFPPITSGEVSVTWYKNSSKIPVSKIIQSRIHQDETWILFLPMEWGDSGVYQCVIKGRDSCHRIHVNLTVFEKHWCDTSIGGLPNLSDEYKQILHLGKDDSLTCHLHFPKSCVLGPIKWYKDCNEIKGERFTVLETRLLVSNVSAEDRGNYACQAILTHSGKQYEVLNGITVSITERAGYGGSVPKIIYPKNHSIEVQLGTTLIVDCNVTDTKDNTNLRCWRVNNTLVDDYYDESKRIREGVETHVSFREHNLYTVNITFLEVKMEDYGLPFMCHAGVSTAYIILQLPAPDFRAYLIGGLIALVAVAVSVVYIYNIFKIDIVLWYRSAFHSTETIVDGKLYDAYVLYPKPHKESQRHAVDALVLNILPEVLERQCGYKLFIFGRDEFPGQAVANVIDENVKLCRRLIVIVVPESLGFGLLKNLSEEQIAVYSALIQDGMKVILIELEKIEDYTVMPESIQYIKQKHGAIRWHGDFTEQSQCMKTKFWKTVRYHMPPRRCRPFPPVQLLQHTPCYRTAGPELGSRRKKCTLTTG

[3] = target: T1, Human IL-1Rrp2/IL-1R6 protein, His Tag …; test: BLI (ForteBio Octet), antibody on ProA sensor, 1:1 model
Experimental: The affinity of anti-IL-36R antibodies to CynoIL36R-ECD mFc and human IL-1Rrp2/IL-IR6 protein, His Tag (ACROBiosystems, IL2-H52H6) was measured by a ForteBio molecular interaction instrument. […] And then the biosensor was used to bind CynoIL36R-ECD mFc or human IL-1Rrp2/IL-1R6 protein, His Tag which was diluted by a gradient (the initial concentration was 200 nM, 2-fold gradient dilution), the response signals were detected in real time using a Fortebio molecular interaction instrument (SARTORIUS, octet red 96e), and association and dissociation curves were obtained. After the completion of dissociation in each cycle, the biosensor was regenerated for the next capture; the procedure was repeated until the affinity of the different anti-IL-36R antibodies for IL-36R was determined. The resulting data were analyzed by Fortebio Data Analysis 11.0 software in a 1:1 (Langmuir) binding model to determine kₐ (kₒₙ) and kd (koff) values, and the dissociation constant KD was calculated by KD=kd/kₐ. The detection method essentially followed the manufacturer's recommendations, and more information could be found at www.fortebio.com.
Affinity, binding and blocking assays for humanized antibodies hz72C1-1.1, hz72C1-1.2, hz72C1-1.3, hz72C1-2.1, hz72C1-2.2 and hz72C1-2.3 as well as hz84C4-1.1, hz84C4-1.2, hz84C4-1.3, hz84C4-1.4, hz84C4-1.5, hz84C4-2.1, hz84C4-2.2, hz84C4-2.3, hz84C4-2.4 and hz84C4-2.5 were performed according to the methods of Example 4, Example 5. Example 6, Example 7 and Example 8.

B1: hz84C4-1.2 (antibody, human IgG4 S228P, kappa, V domains shown)
VH: QVQLVQSGAEVKKPGASVKVSCKASGYFFTSYWMNWVRQAPGQGLEWMGYIHPYDSETRYAQKFQGRVTMTVDKSTSTVYMELSSLRSEDTAVYYCASSTTAFAYWGQGTLVTVSS
VL: DIQMTQSPSSLSASVGDRVTITCRASQDIGNALNWYQQKPGKAPKRLIYATSSLDPGVPSRFSGSRSGTDFTLTISSLQPEDFATYYCLQYASSPYTFGQGTKVEIKR
notes: Humanized, human IgG4 / kappa
[1]
  EC50: 0.531 nM

B2: hz84C4-1.4 (antibody, human IgG4 S228P, kappa, V domains shown)
VH: B1 VH with F28Y, Y50M, Y60L, Q65K
VL: B1 VL
notes: Humanized, human IgG4 / kappa
[1]
  EC50: 0.684 nM

B3: hz84C4-2.4 (antibody, human IgG4 S228P, kappa, V domains shown)
VH: B1 VH with F28Y, Y50M, Y60L, Q65K
VL: B1 VL with Y36L, F71Y
notes: Humanized, human IgG4 / kappa
[1]
  EC50: 0.453 nM

B4: hz84C4-2.5 (antibody, human IgG4 S228P, kappa, V domains shown)
VH: B1 VH with A24V, R38N, Y50M, Y60L, Q65K
VL: B1 VL with Y36L, F71Y
notes: Humanized, human IgG4 / kappa
[1]
  EC50: 0.497 nM

B5: hz84C4-1.3 (antibody, human IgG4 S228P, kappa, V domains shown)
VH: B1 VH with Y50M, H52Y
VL: B1 VL
notes: Humanized, human IgG4 / kappa
[1]
  EC50: 3.41 nM

B6: hz84C4-2.1 (antibody, human IgG4 S228P, kappa, V domains shown)
VH: B1 VH with Y50M
VL: B1 VL with Y36L, F71Y
notes: Humanized, human IgG4 / kappa
[1]
  EC50: 0.558 nM

B7: hz84C4-1.5 (antibody, human IgG4 S228P, kappa, V domains shown)
VH: B1 VH with A24V, R38N, Y50M, Y60L, Q65K
VL: B1 VL
notes: Humanized, human IgG4 / kappa
[1]
  EC50: 0.624 nM

B8: hz84C4-2.2 (antibody, human IgG4 S228P, kappa, V domains shown)
VH: B1 VH
VL: B1 VL with Y36L, F71Y
notes: Humanized, human IgG4 / kappa
[1]
  EC50: 0.533 nM

B9: hz84C4-2.3 (antibody, human IgG4 S228P, kappa, V domains shown)
VH: B1 VH with Y50M, H52Y
VL: B1 VL with Y36L, F71Y
notes: Humanized, human IgG4 / kappa
[1]
  EC50: 2.25 nM

B10: BI655130 (antibody, human IgG1, kappa, L234A L235A)
heavy: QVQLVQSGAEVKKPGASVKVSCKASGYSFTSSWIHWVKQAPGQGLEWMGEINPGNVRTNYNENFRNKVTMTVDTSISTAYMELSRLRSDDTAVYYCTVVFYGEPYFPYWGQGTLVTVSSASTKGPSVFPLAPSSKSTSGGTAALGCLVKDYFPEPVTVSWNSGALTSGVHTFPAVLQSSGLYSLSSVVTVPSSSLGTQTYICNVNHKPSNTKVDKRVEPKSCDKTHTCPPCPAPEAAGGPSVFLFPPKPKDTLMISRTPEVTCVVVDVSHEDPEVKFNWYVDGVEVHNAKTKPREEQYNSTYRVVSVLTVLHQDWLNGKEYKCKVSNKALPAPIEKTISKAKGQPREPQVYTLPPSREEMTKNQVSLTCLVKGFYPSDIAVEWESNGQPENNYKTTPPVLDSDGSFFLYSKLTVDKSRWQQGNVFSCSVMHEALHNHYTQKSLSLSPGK
light: QIVLTQSPGTLSLSPGERATMTCTASSSVSSSYFHWYQQKPGQAPRLWIYRTSRLASGVPDRFSGSGSGTDFTLTISRLEPEDAATYYCHQFHRSPLTFGAGTKLEIKRTVAAPSVFIFPPSDEQLKSGTASVVCLLNNFYPREAKVQWKVDNALQSGNSQESVTEQDSKDSTYSLSSTLTLSKADYEKHKVYACEVTHQGLSSPVTKSFNRGEC
notes: also called Spesolimab
[2]
  IC50 (M); hIL36α; IL-8 production: 1.26e-10 M
  IC50 (M); hIL36αβγ; IL-8 production: 1.98e-10 M
  IC50 (M); hIL36β; IL-8 production: 3.03e-10 M
  IC50 (M); hIL36γ; IL-8 production: 4.42e-11 M
  Maximum inhibition rate %; hIL36α; IL-8 production: 106%
  Maximum inhibition rate %; hIL36αβγ; IL-8 production: 98.9%
  Maximum inhibition rate %; hIL36β; IL-8 production: 101%
  Maximum inhibition rate %; hIL36γ; IL-8 production: 105%
[3]
  Kd: 0.245 nM
  koff: 1.57e-05 s⁻¹
  kon: 64100 M⁻¹ s⁻¹
[1]
  EC50: 0.348 nM
